Measured values from US20250002588A1 (DIAGONAL THERAPEUTICS, published 2025).

Target: ALK-1/BMPR-2 receptor pair of the PathHunter U2Os dimerization cells (DiscoverX 93-0962C3) (UniProt P37023 22-503; Q13873 27-1038)
Assay: cell-based or functional assay

Row | Binder | % Emax BMP9 [%] | Emax (RLU)
1 | DGL869 (bispecific antibody) chain 1: not shown chain 2: EVQLLESGGGLVQPGGSLRLSCAASGFTFSDYYMTWIRQAPGKGLEWVSSISGGSTYYADSRKGRFTISRDNSENTLYLQMNSLRAEDTAVYYCARDFGVAGWFGQYGMDVWGQGTLVTVSSGGGGSGGGGSGGGGSQSVLTQPPSASGTPGQRVTISCTGSSSNIGAGYDVHWYQQLPGTAPKLLIYRSNQRPSGVPDRFSGSKSGTSASLAISGLRSEDEADYYCSSYAGNYNLVFGGGTKLTVLDKTHTCPPCPAPEAAGAPSVFLFPPKPKDTLMISRTPEVTCVVVDVSHEDPEVKFNWYVDGVEVHNAKTKPREEQYNSTYRVVSVLTVLHQDWLNGKEYKCKVSNKALPAPIEKTISKAKGQPREPQVCTLPPSRDELTKNQVSLSCAVKGFYPSDIAVEWESNGQPENNYKTTPPVLDSDGSFFLVSKLTVDKSRWQQGNVFSCSVMHEALHNHYTQKSLSLSPGWSHPQFEK | 56 | 1.44e+06
2 | DGL877 (bispecific antibody) chain 1: not shown chain 2: EVQLLESGGGLVQPGGSLRLSCAASGFTFSDYYMTWIRQAPGKGLEWVSSISGGSTYYADSRKGRFTISRDNSENTLYLQMNSLRAEDTAVYYCARDFGVAGWFGQYGMDVWGQGTLVTVSSGGGGSGGGGSGGGGSQSVLTQPPSASGTPGQRVTISCTGSASNIGAGYDVHWYQQLPGTAPKLLIYRSNQRPSGVPDRFSGSKSGTSASLAISGLRSEDEADYYCSSYAGNYNLVFGGGTKLTVLDKTHTCPPCPAPEAAGAPSVFLFPPKPKDTLMISRTPEVTCVVVDVSHEDPEVKFNWYVDGVEVHNAKTKPREEQYNSTYRVVSVLTVLHQDWLNGKEYKCKVSNKALPAPIEKTISKAKGQPREPQVCTLPPSRDELTKNQVSLSCAVKGFYPSDIAVEWESNGQPENNYKTTPPVLDSDGSFFLVSKLTVDKSRWQQGNVFSCSVMHEALHNHYTQKSLSLSPGWSHPQFEK | 76 | 1.95e+06
3 | DGL872 (bispecific antibody) chain 1: not shown chain 2: EVQLLESGGGLVQPGGSLRLSCAASGFTFSDYYMTWIRQAPGKGLEWVSSISGGSTYYADSRKGRFTISRDNSENTLYLQMNSLRAEDTAVYYCARDFGVAGWFGQYGMDVWGQGTLVTVSSGGGGSGGGGSGGGGSQSVLTQPPSASGTPGQRVTISCTGSSSNIGAGYDVHWYQQLPGTAPKLLIYRSNQRPSGVPDRFSGSKSGTSASLAISGLRSEDEADYYCSSYAGNYNLVFGGGTKLTVLDKTHTCPPCPAPEAAGAPSVFLFPPKPKDTLMISRTPEVTCVVVDVSHEDPEVKFNWYVDGVEVHNAKTKPREEQYNSTYRVVSVLTVLHQDWLNGKEYKCKVSNKALPAPIEKTISKAKGQPREPQVCTLPPSRDELTKNQVSLSCAVKGFYPSDIAVEWESNGQPENNYKTTPPVLDSDGSFFLVSKLTVDKSRWQQGNVFSCSVMHEALHNHYTQKSLSLSPGWSHPQFEK | 57 | 1.46e+06
4 | DGL876 (bispecific antibody) chain 1: not shown chain 2: EVQLLESGGGLVQPGGSLRLSCAASGFTFSDYYMTWIRQAPGKGLEWVSSISGGSTYYADSRKGRFTISRDNSENTLYLQMNSLRAEDTAVYYCARDFGVAGWFGQYGMDVWGQGTLVTVSSGGGGSGGGGSGGGGSQSVLTQPPSASGTPGQRVTISCTGSSSNIGAGYDVHWYQQLPGTAPKLLIYRSNQRPSGVPDRFSGSKSGTSASLAISGLRSEDEADYYCSSYAGNYNLVFGGGTKLTVLDKTHTCPPCPAPEAAGAPSVFLFPPKPKDTLMISRTPEVTCVVVDVSHEDPEVKFNWYVDGVEVHNAKTKPREEQYNSTYRVVSVLTVLHQDWLNGKEYKCKVSNKALPAPIEKTISKAKGQPREPQVCTLPPSRDELTKNQVSLSCAVKGFYPSDIAVEWESNGQPENNYKTTPPVLDSDGSFFLVSKLTVDKSRWQQGNVFSCSVMHEALHNHYTQKSLSLSPGWSHPQFEK | 61 | 1.57e+06

Other lines, results leading:

Row | % Emax BMP9 [%] | Emax (RLU) | Binder
5 | 56 | 1.42e+06 | DGL870 (bispecific antibody) chain 1: not shown chain 2: EVQLLESGGGLVQPGGSLRLSCAASGFTFSDYYMTWIRQAPGKGLEWVSSISGGSTYYADSRKGRFTISRDNSENTLYLQMNSLRAEDTAVYYCARDFGVAGWFGQYGMDVWGQGTLVTVSSGGGGSGGGGSGGGGSQSVLTQPPSASGTPGQRVTISCTGSSSNIGAGYDVHWYQQLPGTAPKLLIYRSNQRPSGVPDRFSGSKSGTSASLAISGLRSEDEADYYCSSYAGNYNLVFGGGTKLTVLDKTHTCPPCPAPEAAGAPSVFLFPPKPKDTLMISRTPEVTCVVVDVSHEDPEVKFNWYVDGVEVHNAKTKPREEQYNSTYRVVSVLTVLHQDWLNGKEYKCKVSNKALPAPIEKTISKAKGQPREPQVCTLPPSRDELTKNQVSLSCAVKGFYPSDIAVEWESNGQPENNYKTTPPVLDSDGSFFLVSKLTVDKSRWQQGNVFSCSVMHEALHNHYTQKSLSLSPGWSHPQFEK
6 | 60 | 1.55e+06 | DGL873 (bispecific antibody) chain 1: not shown chain 2: EVQLLESGGGLVQPGGSLRLSCAASGFTFSDYYMTWIRQAPGKGLEWVSSISGGSTYYADSRKGRFTISRDNSENTLYLQMNSLRAEDTAVYYCARDFGVAGWFGQYGMDVWGQGTLVTVSSGGGGSGGGGSGGGGSQSVLTQPPSASGTPGQRVTISCTGSSSNIGAGYDVHWYQQLPGTAPKLLIYRSNQRPSGVPDRFSGSKSGTSASLAISGLRSEDEADYYCSSYAGNYNLVFGGGTKLTVLDKTHTCPPCPAPEAAGAPSVFLFPPKPKDTLMISRTPEVTCVVVDVSHEDPEVKFNWYVDGVEVHNAKTKPREEQYNSTYRVVSVLTVLHQDWLNGKEYKCKVSNKALPAPIEKTISKAKGQPREPQVCTLPPSRDELTKNQVSLSCAVKGFYPSDIAVEWESNGQPENNYKTTPPVLDSDGSFFLVSKLTVDKSRWQQGNVFSCSVMHEALHNHYTQKSLSLSPGWSHPQFEK
7 | 62 | 1.59e+06 | DGL871 (bispecific antibody) chain 1: not shown chain 2: EVQLLESGGGLVQPGGSLRLSCAASGFTFSDYYMTWIRQAPGKGLEWVSSISGGSTYYADSRKGRFTISRDNSENTLYLQMNSLRAEDTAVYYCARDFGVAGWFGQYGMDVWGQGTLVTVSSGGGGSGGGGSGGGGSQSVLTQPPSASGTPGQRVTISCTGSSSNIGAGYDVHWYQQLPGTAPKLLIYRSNQRPSGVPDRFSGSKSGTSASLAISGLRSEDEADYYCSSYAGNYNLVFGGGTKLTVLDKTHTCPPCPAPEAAGAPSVFLFPPKPKDTLMISRTPEVTCVVVDVSHEDPEVKFNWYVDGVEVHNAKTKPREEQYNSTYRVVSVLTVLHQDWLNGKEYKCKVSNKALPAPIEKTISKAKGQPREPQVCTLPPSRDELTKNQVSLSCAVKGFYPSDIAVEWESNGQPENNYKTTPPVLDSDGSFFLVSKLTVDKSRWQQGNVFSCSVMHEALHNHYTQKSLSLSPGWSHPQFEK
8 | 65 | 1.66e+06 | DGL875 (bispecific antibody) chain 1: not shown chain 2: EVQLLESGGGLVQPGGSLRLSCAASGFTFSDYYMTWIRQAPGKGLEWVSSISGGSTYYADSRKGRFTISRDNSENTLYLQMNSLRAEDTAVYYCARDFGVAGWFGQYGMDVWGQGTLVTVSSGGGGSGGGGSGGGGSQSVLTQPPSASGTPGQRVTISCTGSSSNIGAGYDVHWYQQLPGTAPKLLIYRSNQRPSGVPDRFSGSKSGTSASLAISGLRSEDEADYYCSSYAGNYNLVFGGGTKLTVLDKTHTCPPCPAPEAAGAPSVFLFPPKPKDTLMISRTPEVTCVVVDVSHEDPEVKFNWYVDGVEVHNAKTKPREEQYNSTYRVVSVLTVLHQDWLNGKEYKCKVSNKALPAPIEKTISKAKGQPREPQVCTLPPSRDELTKNQVSLSCAVKGFYPSDIAVEWESNGQPENNYKTTPPVLDSDGSFFLVSKLTVDKSRWQQGNVFSCSVMHEALHNHYTQKSLSLSPGWSHPQFEK
9 | 71 | 1.81e+06 | DGL879 (bispecific antibody) chain 1: not shown chain 2: EVQLLESGGGLVQPGGSLRLSCAASGFTFSDYYMTWIRQAPGKGLEWVSSISGGSTYYADSRKGRFTISRDNSENTLYLQMNSLRAEDTAVYYCARDFGVAGWFGQYGMDVWGQGTLVTVSSGGGGSGGGGSGGGGSQSVLTQPPSASGTPGQRVTISCTGSSSNIGAGYDVHWYQQLPGTAPKLLIYRSNQRPSGVPDRFSGSKSGTSASLAISGLRSEDEADYYCSSYAGLYNLVFGGGTKLTVLDKTHTCPPCPAPEAAGAPSVFLFPPKPKDTLMISRTPEVTCVVVDVSHEDPEVKFNWYVDGVEVHNAKTKPREEQYNSTYRVVSVLTVLHQDWLNGKEYKCKVSNKALPAPIEKTISKAKGQPREPQVCTLPPSRDELTKNQVSLSCAVKGFYPSDIAVEWESNGQPENNYKTTPPVLDSDGSFFLVSKLTVDKSRWQQGNVFSCSVMHEALHNHYTQKSLSLSPGWSHPQFEK
10 | 61 | 1.56e+06 | DGL874 (bispecific antibody) chain 1: not shown chain 2: EVQLLESGGGLVQPGGSLRLSCAASGFTFSDYYMTWIRQAPGKGLEWVSSISGGSTYYADSRKGRFTISRDNSENTLYLQMNSLRAEDTAVYYCARDFGVAGWFGQYGMDVWGQGTLVTVSSGGGGSGGGGSGGGGSQSVLTQPPSASGTPGQRVTISCTGSSSNIGAGYDVHWYQQLPGTAPKLLIYRSNQRPSGVPDRFSGSKSGTSASLAISGLRSEDEADYYCSSYAGNYNLVFGGGTKLTVLDKTHTCPPCPAPEAAGAPSVFLFPPKPKDTLMISRTPEVTCVVVDVSHEDPEVKFNWYVDGVEVHNAKTKPREEQYNSTYRVVSVLTVLHQDWLNGKEYKCKVSNKALPAPIEKTISKAKGQPREPQVCTLPPSRDELTKNQVSLSCAVKGFYPSDIAVEWESNGQPENNYKTTPPVLDSDGSFFLVSKLTVDKSRWQQGNVFSCSVMHEALHNHYTQKSLSLSPGWSHPQFEK
11 | 73 | 1.88e+06 | DGL878 (bispecific antibody) chain 1: not shown chain 2: EVQLLESGGGLVQPGGSLRLSCAASGFTFSDYYMTWIRQAPGKGLEWVSSISGGSTYYADSRKGRFTISRDNSENTLYLQMNSLRAEDTAVYYCARDFGVAGWFGQYGMDVWGQGTLVTVSSGGGGSGGGGSGGGGSQSVLTQPPSASGTPGQRVTISCTGSSSNIGAGYDVHWYQQLPGTAPKLLIYRSNQRPAGVPDRFSGSKSGTSASLAISGLRSEDEADYYCSSYAGNYNLVFGGGTKLTVLDKTHTCPPCPAPEAAGAPSVFLFPPKPKDTLMISRTPEVTCVVVDVSHEDPEVKFNWYVDGVEVHNAKTKPREEQYNSTYRVVSVLTVLHQDWLNGKEYKCKVSNKALPAPIEKTISKAKGQPREPQVCTLPPSRDELTKNQVSLSCAVKGFYPSDIAVEWESNGQPENNYKTTPPVLDSDGSFFLVSKLTVDKSRWQQGNVFSCSVMHEALHNHYTQKSLSLSPGWSHPQFEK
